Data on four molecules can be found in article PMC4027207, “Molecular dissection of the domain architecture and catalytic activities of human PrimPol” (Nucleic Acids Research, 2014).

Data set [1] deals with T1, human PrimPol (wild-type, full-length) (Homo sapiens, UniProt Q96LW4).
T1 construct: full length (560 residues), E. coli BL21(pLysS), Ni-NTA, heparin and gel filtration
T1 sequence (Q96LW4 1-560): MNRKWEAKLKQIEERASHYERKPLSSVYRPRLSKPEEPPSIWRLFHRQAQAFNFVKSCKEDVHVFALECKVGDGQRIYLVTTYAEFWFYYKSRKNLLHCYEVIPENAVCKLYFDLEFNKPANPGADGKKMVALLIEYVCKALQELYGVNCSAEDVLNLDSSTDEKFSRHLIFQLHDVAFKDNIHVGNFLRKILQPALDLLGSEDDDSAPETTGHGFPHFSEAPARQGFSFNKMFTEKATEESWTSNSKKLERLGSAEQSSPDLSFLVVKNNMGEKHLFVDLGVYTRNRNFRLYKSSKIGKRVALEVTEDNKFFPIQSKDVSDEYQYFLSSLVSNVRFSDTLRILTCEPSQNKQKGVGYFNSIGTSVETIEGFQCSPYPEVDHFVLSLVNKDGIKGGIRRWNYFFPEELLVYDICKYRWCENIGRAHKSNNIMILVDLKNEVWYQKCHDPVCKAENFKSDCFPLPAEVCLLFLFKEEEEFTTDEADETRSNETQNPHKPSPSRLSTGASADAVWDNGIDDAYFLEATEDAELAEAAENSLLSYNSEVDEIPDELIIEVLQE
Put plainly: gel-based single nucleotide primer extension. Type of data set: biochemical. The note with it: 200 uM dNTP.

In the next data set the target is T2, PrimPol1–354 (Homo sapiens, UniProt Q96LW4).
T2 construct: gene PRIMPOL; AEP polymerase domain, residues 1-354, lacks zinc finger; E. coli, Ni-NTA
T2 sequence (Q96LW4 1-354): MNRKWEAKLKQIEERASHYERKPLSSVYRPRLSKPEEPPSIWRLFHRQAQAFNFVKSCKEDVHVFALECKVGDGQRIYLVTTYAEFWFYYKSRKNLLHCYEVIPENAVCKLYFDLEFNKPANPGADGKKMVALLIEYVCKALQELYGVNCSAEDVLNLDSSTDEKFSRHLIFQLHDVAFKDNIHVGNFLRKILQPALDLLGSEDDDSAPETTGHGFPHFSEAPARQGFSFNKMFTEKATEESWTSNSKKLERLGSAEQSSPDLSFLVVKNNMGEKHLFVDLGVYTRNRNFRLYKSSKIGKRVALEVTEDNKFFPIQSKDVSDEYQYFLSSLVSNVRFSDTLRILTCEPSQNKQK
The data set can be described thus: gel-based single nucleotide primer extension. The note with it: opposite templating cytosines; 200 uM dNTP, 10 mM MgCl2, pH 7.0. Type of data set: biochemical.

Data set [2] concerns the target T3, PrimPol1-354 (AEP polymerase domain) (Homo sapiens, UniProt Q96LW4 1-354).
T3 sequence: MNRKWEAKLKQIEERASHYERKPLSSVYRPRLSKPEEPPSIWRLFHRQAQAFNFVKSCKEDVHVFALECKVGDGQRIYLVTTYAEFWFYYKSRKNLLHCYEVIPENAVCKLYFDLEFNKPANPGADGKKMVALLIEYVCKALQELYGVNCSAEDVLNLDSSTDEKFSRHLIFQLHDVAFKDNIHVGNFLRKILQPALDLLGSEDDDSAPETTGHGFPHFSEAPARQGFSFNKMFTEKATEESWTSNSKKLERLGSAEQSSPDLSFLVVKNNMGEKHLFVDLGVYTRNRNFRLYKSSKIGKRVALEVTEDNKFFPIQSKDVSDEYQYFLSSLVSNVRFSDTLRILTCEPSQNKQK
The data set can be described thus: EMSA; 10 mM Mg2+; 40 nM DNA; shift evident at ~0.5 uM protein, complete at 5 uM; 10 mM Bis-Tris-Propane-HCl pH 7.0, 10 mM MgCl2, 1 mM DTT, 40 nM DNA, 25°C, 60 min; 5% polyacrylamide gel in 0.5x TBE. To be noted: protein: recombinant, tags: His (Ni-NTA purified).

Data set [3] concerns the target T4, PrimPol372-560 (zinc finger domain) (Homo sapiens, UniProt Q96LW4 372-560).
T4 sequence: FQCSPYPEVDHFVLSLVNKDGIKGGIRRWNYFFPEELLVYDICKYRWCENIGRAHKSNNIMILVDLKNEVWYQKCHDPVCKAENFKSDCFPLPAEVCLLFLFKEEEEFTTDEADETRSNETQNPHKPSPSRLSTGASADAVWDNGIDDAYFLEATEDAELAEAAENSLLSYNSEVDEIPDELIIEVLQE
Put plainly: EMSA; 10 mM Mg2+; 40 nM DNA; protein 0.05-20 uM; 10 mM Bis-Tris-Propane-HCl pH 7.0, 10 mM MgCl2, 1 mM DTT, 40 nM DNA, 25°C, 60 min; 5% polyacrylamide gel in 0.5x TBE. The note with it: protein: recombinant; tags: His (Ni-NTA purified); label: 5'-Hex.

Data set [4] concerns the target T4, PrimPol372-560 (zinc finger domain). The data set can be described thus: EMSA; 10 mM Mg2+; 40 nM DNA; no shift, protein 0.05-20 uM; 10 mM Bis-Tris-Propane-HCl pH 7.0, 10 mM MgCl2, 1 mM DTT, 40 nM DNA, 25°C, 60 min; 5% polyacrylamide gel in 0.5x TBE. The note with it: protein: recombinant; tags: His (Ni-NTA purified); label: 5'-Hex on strand 1; blunt.

Turning to `Nc1ncnc2c1ncn2[C@H]1C[C@H](O)[C@@H](COP(=O)(O)OP(=O)(O)OP(=O)(O)O)O1` [dATP], the “gel-based single nucleotide primer extension” value in data set [1] (template-independent extension, 10 mM MgCl2, 1 mM MnCl2, pH 7.0, 37 °C) is on record as “promiscuous DNA synthesis was most efficient when enzyme was utilising dATP or dTTP”.
For `Nc1nc2c(ncn2[C@H]2C[C@H](O)[C@@H](COP(=O)(O)OP(=O)(O)OP(=O)(O)O)O2)c(=O)[nH]1` [dGTP], the “gel-based single nucleotide primer extension” value on PrimPol1–354 is given as “All four of these PrimPol constructs inserted two guanine nucleotides opposite two cytosines”; in data set [1] (opposite templating cytosines, 10 mM MgCl2, pH 7.0), “all incorporated two correct incoming guanine nucleotides opposite the templating cytosines”.
In the case of TGTCGTCTGTTCGGTCGTTCGGTCTTCAAGGCTGTTGTGCGCCCTGCGCG (ssDNA) [HP-50 ssDNA (sequence 7)], the binding result in data set [2] (label: 5'-Hex) and in data set [3] was “binds” throughout.

B1: HP-50/ND-50 dsDNA (sequence 6 annealed to 7) (dsDNA)
DNA 1: TGTCGTCTGTTCGGTCGTTCGGTCTTCAAGGCTGTTGTGCGCCCTGCGCG
DNA 2: CGCGCAGGGCGCACAACAGCCTTGAAGACCGAACGACCGAACAGACGACA
As to B1, the binding result in data set [4] is on record as “no binding”; in data set [2] (label: 5'-Hex on strand 1, blunt), “binds”.
